The values below come from article PMC2175515, “Hfq stimulates the activity of the CCA-adding enzyme”.

This data set has as its target Hfq (Escherichia coli, UniProt P0A6X3 1-102). Description: competition; competitor 20-600 fmol vs 20 fmol labelled tRNA (N1); Same conditions as the CCA-addition assay (30 °C, 1 and 10 min); buffer, salt and pH not in the material; native 6% polyacrylamide gel. To be noted: protein: recombinant; chain copies: 6.

Chain of Hfq (P0A6X3 whole entry): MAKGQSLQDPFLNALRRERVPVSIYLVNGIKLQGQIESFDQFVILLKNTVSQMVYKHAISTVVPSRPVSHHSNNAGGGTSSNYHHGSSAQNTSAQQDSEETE

B1: pCR 2.1 TOPO run-off transcript (ssRNA)
RNA: GGGCGAAUUGGGCCCUCUAGAUGCAUGCUCGAGCGGCCGCCAGUGUGAUGGAU
On to B1, for which the binding result is listed as “no binding”.
